US11911450B2, “Method for managing pain” (UNIVERSITY OF MIAMI, priority 2017, dated 2024)

Columns and labels:
ITPR1 = ITPR1 (Homo sapiens, UniProt Q14643); assay: NGF-induced intracellular calcium release / ITPR1 activation in NBL cells; type: cell-based; set-up: endogenous in cells
[1] = tested on: intracellular calcium release in NBL cells; assay: ATP-stimulated calcium release in NBL cells (Fura2 imaging); type: cell-based, human; details: 1 μM ATP, vs empty vector
Method: Pharmacodynamics—Bioassay of Calcium Release: Fifteen mm glass coverslips (cat #72228 Electron Microscopy Sciences, Hatfield, PA) were coated with poly-D-Lysine (Sigma) followed by Laminin and 1×10^5 cells were seeded on each coverslip. Twenty-four hrs later, cells were transfected with AAV2-ITR, AAV2-V5-Car10, or AAV2-V5-CA10 vectors as previously described. In embodiments wherein AAV2 is not employed, other expression vectors (including viral vectors) are used. Fura-2AM (cat #F1221 ThermoFisher scientific, Waltham, MA) was dissolved in DMSO (50 μg in 50 μl) and 1% pluronic acid-127 (cat #P2443 Sigma, St Louis, MO) as the stock solution. Forty eight hrs after seeding, cells were loaded with 2 μM Fura-2AM dye for 45 min at room temperature in the dark in a standard Ca+2 buffer solution containing: 125 mM NaCl, 2 mM MgCl, 4.5 mM KCl, 10 glucose, 20 mM HEPES, 2 mM CaCl2, pH 7.4.25. Following dye loading, coverslips were washed with Ca^+2 buffer solution. […] Regions of interest over the field of view were selected and the mean pixels intensity at each frame was measured. Data was plotted as ratio fluorescence intensity versus time and subsequently converted to a relative scale. […]

ITPR1, sequence (Q14643 whole entry): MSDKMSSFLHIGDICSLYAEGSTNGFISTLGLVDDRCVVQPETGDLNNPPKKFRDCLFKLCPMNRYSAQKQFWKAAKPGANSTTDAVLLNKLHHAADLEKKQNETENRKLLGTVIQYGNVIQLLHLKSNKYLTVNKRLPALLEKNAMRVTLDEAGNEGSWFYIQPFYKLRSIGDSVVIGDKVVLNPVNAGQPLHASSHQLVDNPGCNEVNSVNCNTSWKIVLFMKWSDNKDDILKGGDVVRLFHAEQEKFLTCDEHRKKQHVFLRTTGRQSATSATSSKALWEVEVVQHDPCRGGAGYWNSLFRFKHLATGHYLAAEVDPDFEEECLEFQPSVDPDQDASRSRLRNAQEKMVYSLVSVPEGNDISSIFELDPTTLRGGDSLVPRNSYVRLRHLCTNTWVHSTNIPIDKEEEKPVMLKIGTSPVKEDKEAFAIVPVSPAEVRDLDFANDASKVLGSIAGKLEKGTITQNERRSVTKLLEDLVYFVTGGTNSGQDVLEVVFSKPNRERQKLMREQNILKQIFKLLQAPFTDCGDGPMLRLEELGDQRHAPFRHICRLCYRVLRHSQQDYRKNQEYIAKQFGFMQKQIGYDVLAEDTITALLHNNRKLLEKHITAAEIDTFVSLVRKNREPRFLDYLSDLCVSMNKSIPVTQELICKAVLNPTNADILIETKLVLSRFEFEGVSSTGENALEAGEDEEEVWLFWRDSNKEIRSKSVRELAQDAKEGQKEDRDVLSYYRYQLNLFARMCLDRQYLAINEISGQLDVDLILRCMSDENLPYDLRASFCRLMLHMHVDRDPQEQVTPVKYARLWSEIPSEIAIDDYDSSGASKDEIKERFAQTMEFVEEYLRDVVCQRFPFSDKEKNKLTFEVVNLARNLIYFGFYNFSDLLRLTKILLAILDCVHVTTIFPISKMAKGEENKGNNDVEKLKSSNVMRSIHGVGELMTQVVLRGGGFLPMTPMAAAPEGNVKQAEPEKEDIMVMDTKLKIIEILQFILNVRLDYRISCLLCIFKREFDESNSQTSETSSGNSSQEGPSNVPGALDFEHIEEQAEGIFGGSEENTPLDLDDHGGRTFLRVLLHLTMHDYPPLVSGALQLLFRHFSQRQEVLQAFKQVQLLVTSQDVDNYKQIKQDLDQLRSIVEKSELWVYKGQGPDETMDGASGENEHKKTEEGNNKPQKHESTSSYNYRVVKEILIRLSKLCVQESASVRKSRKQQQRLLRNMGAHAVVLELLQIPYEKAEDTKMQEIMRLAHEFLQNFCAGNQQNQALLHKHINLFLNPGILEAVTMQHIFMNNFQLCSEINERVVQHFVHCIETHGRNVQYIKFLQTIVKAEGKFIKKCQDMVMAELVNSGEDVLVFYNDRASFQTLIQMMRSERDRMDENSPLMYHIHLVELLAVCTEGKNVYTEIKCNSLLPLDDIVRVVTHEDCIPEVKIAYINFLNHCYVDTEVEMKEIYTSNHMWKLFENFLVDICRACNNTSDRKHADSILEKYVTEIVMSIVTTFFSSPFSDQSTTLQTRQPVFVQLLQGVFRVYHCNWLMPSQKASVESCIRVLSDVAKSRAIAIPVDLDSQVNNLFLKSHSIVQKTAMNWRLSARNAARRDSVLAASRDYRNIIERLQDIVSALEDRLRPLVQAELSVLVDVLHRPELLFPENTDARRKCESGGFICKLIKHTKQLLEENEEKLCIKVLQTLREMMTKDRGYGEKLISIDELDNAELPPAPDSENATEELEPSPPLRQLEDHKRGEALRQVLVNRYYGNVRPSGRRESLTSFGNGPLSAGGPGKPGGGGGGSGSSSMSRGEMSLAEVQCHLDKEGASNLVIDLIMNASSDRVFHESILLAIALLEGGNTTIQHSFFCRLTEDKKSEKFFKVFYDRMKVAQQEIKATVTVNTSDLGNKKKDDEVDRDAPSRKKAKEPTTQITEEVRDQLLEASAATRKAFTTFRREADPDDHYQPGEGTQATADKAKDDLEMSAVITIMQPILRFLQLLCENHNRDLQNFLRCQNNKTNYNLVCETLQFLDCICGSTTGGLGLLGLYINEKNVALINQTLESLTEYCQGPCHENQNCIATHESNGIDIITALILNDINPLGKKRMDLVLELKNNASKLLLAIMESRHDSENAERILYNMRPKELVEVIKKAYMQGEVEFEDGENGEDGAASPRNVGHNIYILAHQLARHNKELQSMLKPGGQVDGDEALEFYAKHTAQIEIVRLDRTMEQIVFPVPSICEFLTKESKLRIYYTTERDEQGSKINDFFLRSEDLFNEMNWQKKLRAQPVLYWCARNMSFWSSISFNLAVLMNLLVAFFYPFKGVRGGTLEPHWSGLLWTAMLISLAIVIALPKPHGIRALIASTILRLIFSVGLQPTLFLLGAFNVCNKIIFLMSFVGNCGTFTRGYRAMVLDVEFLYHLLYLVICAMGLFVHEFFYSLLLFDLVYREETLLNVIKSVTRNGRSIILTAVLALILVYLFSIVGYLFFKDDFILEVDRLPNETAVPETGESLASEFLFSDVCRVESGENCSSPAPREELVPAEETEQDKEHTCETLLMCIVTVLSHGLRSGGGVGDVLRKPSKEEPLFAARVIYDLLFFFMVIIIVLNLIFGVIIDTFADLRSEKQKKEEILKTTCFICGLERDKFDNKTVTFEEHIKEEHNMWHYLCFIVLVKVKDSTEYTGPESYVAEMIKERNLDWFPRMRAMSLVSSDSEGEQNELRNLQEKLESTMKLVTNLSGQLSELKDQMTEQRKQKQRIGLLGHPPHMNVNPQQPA

NGF-induced intracellular calcium release (ITPR1; NBL cells): nearly completely
B1: CA8-201: wildtype full length CA8 transcript/peptide (protein, UniProt P35219 1-290, looked up)
chain: MADLSFIEDTVAFPEKEEDEEEEEEGVEWGYEEGVEWGLVFPDANGEYQSPINLNSREARYDPSLLDVRLSPNYVVCRDCEVTNDGHTIQVILKSKSVLSGGPLPQGHEFELYEVRFHWGRENQRGSEHTVNFKAFPMELHLIHWNSTLFGSIDEAVGKPHGIAIIALFVQIGKEHVGLKAVTEILQDIQYKGKSKTIPCFNPNTLLPDPLLRDYWVYEGSLTIPPCSEGVTWILFRYPLTISQLQIEEFRRLRTHVKGAELVEGCDGILGDNFRPTQPLSDRVIRAAFQ
modifications: full-length V5 tag
notes: wildtype full length CA8 transcript/peptide
NGF-induced ITPR1 activation (pITPR1) (ITPR1): inhibits NGF-induced ITPR1 activation (pITPR1)
ATP-stimulated calcium release [1]: able to inhibit Ca^2+ release
